# Data published in US20120329067, “Methods of Generating Zinc Finger Nucleases Having Altered Activity” (published 2012).
# Columns and labels:
# [1] = molecular target: E4 zinc finger protein (four C-terminal fingers of E2C) (artificial); experiment: EMSA; conditions: tags: no cleavage domain
# [2] = molecular target: E6 (E2C) six-finger zinc finger protein (artificial); experiment: EMSA; conditions: tags: no cleavage domain
# P3 ZFN FCD K441E = P3 ZFN FCD K441E (artificial, UniProt P14870 SEQ:1-284, K441E (FokI numbering)); experiment: cell_activity; conditions: chain copies: 2 inferred
# P3 ZFN FCD K441E, sequence (P14870 other isoform, or with tags, fused parts or gaps K441E (FokI numbering) | K441E K441E): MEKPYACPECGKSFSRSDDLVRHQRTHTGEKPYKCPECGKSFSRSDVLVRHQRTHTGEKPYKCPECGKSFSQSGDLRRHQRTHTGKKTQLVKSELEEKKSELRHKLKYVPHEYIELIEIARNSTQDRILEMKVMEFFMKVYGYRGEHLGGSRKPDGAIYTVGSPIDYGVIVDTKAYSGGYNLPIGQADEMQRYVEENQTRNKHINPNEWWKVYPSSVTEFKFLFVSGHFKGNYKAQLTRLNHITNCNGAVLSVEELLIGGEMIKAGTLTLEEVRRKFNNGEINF
# P3 ZFN FCD S418P = P3 ZFN FCD S418P (artificial, UniProt P14870 SEQ:1-284, S418P (FokI numbering)); experiment: cell_activity; conditions: chain copies: 2 inferred
# P3 ZFN FCD S418P, sequence (P14870 other isoform, or with tags, fused parts or gaps S418P (FokI numbering) | S418P S418P): as the sequence (P14870 other isoform, or with tags, fused parts or gaps K441E (FokI numbering) | K441E K441E) above, with S123P, E146K counted along it
# [3] = molecular target: E5 zinc finger protein (five C-terminal fingers of E2C) (artificial); experiment: EMSA; conditions: tags: no cleavage domain
# E5 zinc finger protein (five C-terminal fingers of E2C) (artificial), sequence (chain, as listed by the source): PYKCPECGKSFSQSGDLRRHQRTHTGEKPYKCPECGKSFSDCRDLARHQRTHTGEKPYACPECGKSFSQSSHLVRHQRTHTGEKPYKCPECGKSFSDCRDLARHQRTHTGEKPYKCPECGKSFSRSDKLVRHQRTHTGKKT
# [4] = molecular target: E3 zinc finger protein (three C-terminal fingers of E2C) (artificial); experiment: EMSA; conditions: tags: no cleavage domain
# E3 zinc finger protein (three C-terminal fingers of E2C) (artificial), sequence (chain, as listed by the source): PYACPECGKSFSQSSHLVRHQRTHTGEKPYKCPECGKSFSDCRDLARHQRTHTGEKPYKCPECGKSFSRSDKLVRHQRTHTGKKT
# E6 (E2C) six-finger zinc finger protein (artificial), sequence (chain, as listed by the source): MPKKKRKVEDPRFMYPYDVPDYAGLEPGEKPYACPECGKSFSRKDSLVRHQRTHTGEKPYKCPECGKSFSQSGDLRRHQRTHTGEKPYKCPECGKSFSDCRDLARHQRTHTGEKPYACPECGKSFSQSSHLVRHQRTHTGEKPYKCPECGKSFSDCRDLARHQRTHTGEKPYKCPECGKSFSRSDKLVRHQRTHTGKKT
# E4 zinc finger protein (four C-terminal fingers of E2C) (artificial), sequence (chain, as listed by the source): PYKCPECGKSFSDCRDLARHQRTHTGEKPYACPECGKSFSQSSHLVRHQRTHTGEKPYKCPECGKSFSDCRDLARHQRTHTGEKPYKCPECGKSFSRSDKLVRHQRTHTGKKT
binder,measurement,setting,value
E4 binding site (dsDNA) DNA 1: GGGGCCGGAGCC DNA 2: GGCTCCGGCCCC,Kd,[1],10.6 nM
E6 (E2C) binding site (dsDNA) DNA 1: GGGGCCGGAGCCGCAGTG DNA 2: CACTGCGGCTCCGGCCCC,Kd,[2],0.85 nM
"P3/P3 cleavage site, MluI spacer (dsDNA) DNA 1: CGCCACTGCACGCGTGCAGTGGCG DNA 2: CGCCACTGCACGCGTGCAGTGGCG",binding signal,P3 ZFN FCD K441E,> 5 fold of wt FCD activity
same,binding signal,P3 ZFN FCD S418P,> 10 fold of wt FCD activity
E5 binding site (dsDNA) DNA 1: GGGGCCGGAGCCGCA DNA 2: TGCGGCTCCGGCCCC,Kd,[3],4.2 nM
E3 binding site (dsDNA) DNA 1: GGGGCCGGA DNA 2: TCCGGCCCC,Kd,[4],35 nM
